According to patent US20230357362A1:

Key:
[1] = biological target: Cytoplasmic dynein 1 heavy chain 1 OS = Homo sapiens (Homo sapiens) (UniProt Q14204); assay: co-IP with M53 from SW480 lysate, LC-MS
[2] = biological target: Heat shock cognate 71 kDa protein OS = Homo sapiens (Homo sapiens) (UniProt P11142); assay: co-IP with M53 from SW480 lysate, LC-MS
[3] = biological target: Tubulin beta chain OS = Homo sapiens GN = TUBB PE = 1 (Homo sapiens) (UniProt P07437); assay: co-IP with M53 from SW480 lysate, LC-MS
[4] = biological target: Isoform 2 of Annexin A2 OS = Homo sapiens GN = ANXA2 (Homo sapiens) (UniProt P07355); assay: co-IP with M53 from SW480 lysate, LC-MS
[5] = biological target: Junction plakoglobin OS = Homo sapiens GN = JUP PE = 1 (Homo sapiens) (UniProt P14923); assay: co-IP with M53 from SW480 lysate, LC-MS
[6] = biological target: ATP synthase subunit beta, mitochondrial OS = Homo (name cut off as printed) (Homo sapiens) (UniProt P06576); assay: co-IP with M53 from SW480 lysate, LC-MS
[7] = biological target: Isoform 2 of 40S ribosomal protein S20 OS = Homo (name cut off as printed) (Homo sapiens) (UniProt P60866); assay: co-IP with M53 from SW480 lysate, LC-MS
[8] = biological target: Heat shock protein beta-1 OS = Homo sapiens (Homo sapiens) (UniProt P04792); assay: co-IP with M53 from SW480 lysate, LC-MS
[9] = biological target: 40S ribosomal protein S15a OS = Homo sapiens (Homo sapiens) (UniProt P62244); assay: co-IP with M53 from SW480 lysate, LC-MS
[10] = biological target: ADP/ATP translocase 3 OS = Homo sapiens GN = SLC25A6 (Homo sapiens) (UniProt P12236); assay: co-IP with M53 from SW480 lysate, LC-MS
[11] = biological target: Myosin-9 OS = Homo sapiens GN = MYH9 PE = 1 SV = 4 (Homo sapiens) (UniProt P35579); assay: co-IP with M53 from SW480 lysate, LC-MS
[12] = biological target: Histone H4 OS = Homo sapiens GN = HIST1H4A PE = 1 (Homo sapiens) (UniProt P62805); assay: co-IP with M53 from SW480 lysate, LC-MS
[13] = biological target: DNA-dependent protein kinase catalytic subunit (UniProt P78527); assay: co-IP with M53 from SW480 lysate, LC-MS
[14] = biological target: 40S ribosomal protein S3 OS = Homo sapiens GN = RPS3 (Homo sapiens) (UniProt P23396); assay: co-IP with M53 from SW480 lysate, LC-MS
[15] = biological target: Desmoplakin OS = Homo sapiens GN = DSP PE = 1 SV = 3 (Homo sapiens) (UniProt P15924); assay: co-IP with M53 from SW480 lysate, LC-MS
[16] = biological target: Heat shock protein HSP 90-alpha OS = Homo sapiens (Homo sapiens) (UniProt P07900); assay: co-IP with M53 from SW480 lysate, LC-MS
[17] = biological target: Isoform 2 of Glyceraldehyde-3-phosphate (name cut off as printed) (UniProt P04406); assay: co-IP with M53 from SW480 lysate, LC-MS
[18] = biological target: Tubulin beta-4B chain OS = Homo sapiens GN = TUBB4B (Homo sapiens) (UniProt P68371); assay: co-IP with M53 from SW480 lysate, LC-MS
[19] = biological target: Isoform 2 of Plectin OS = Homo sapiens GN = PLEC (Homo sapiens) (UniProt Q15149); assay: co-IP with M53 from SW480 lysate, LC-MS
[20] = biological target: Isoform 2 of ATP synthase subunit alpha, mitochondrial (UniProt P25705); assay: co-IP with M53 from SW480 lysate, LC-MS
[21] = biological target: Cytoplasmic dynein 1 heavy chain 1 OS = Homo sapiens (Homo sapiens) (UniProt Q14204); assay: IP with isotype IgG control from SW480 lysate, LC-MS (negative control)
[22] = biological target: Heat shock cognate 71 kDa protein OS = Homo sapiens (Homo sapiens) (UniProt P11142); assay: as above
[23] = biological target: Tubulin beta chain OS = Homo sapiens GN = TUBB PE = 1 (Homo sapiens) (UniProt P07437); assay: as above
[24] = biological target: Isoform 2 of Annexin A2 OS = Homo sapiens GN = ANXA2 (Homo sapiens) (UniProt P07355); assay: as above
[25] = biological target: endogenous fibronectin of human CRC cells (Isoform 10 of Fibronectin OS = Homo sapiens GN = FN1) (Homo sapiens) (UniProt P02751); assay: as above
[26] = biological target: Junction plakoglobin OS = Homo sapiens GN = JUP PE = 1 (Homo sapiens) (UniProt P14923); assay: as above
[27] = biological target: ATP synthase subunit beta, mitochondrial OS = Homo (name cut off as printed) (Homo sapiens) (UniProt P06576); assay: as above
[28] = biological target: Isoform 2 of 40S ribosomal protein S20 OS = Homo (name cut off as printed) (Homo sapiens) (UniProt P60866); assay: as above
[29] = biological target: Heat shock protein beta-1 OS = Homo sapiens (Homo sapiens) (UniProt P04792); assay: as above
[30] = biological target: 40S ribosomal protein S15a OS = Homo sapiens (Homo sapiens) (UniProt P62244); assay: as above
[31] = biological target: ADP/ATP translocase 3 OS = Homo sapiens GN = SLC25A6 (Homo sapiens) (UniProt P12236); assay: as above
[32] = biological target: Myosin-9 OS = Homo sapiens GN = MYH9 PE = 1 SV = 4 (Homo sapiens) (UniProt P35579); assay: as above
[33] = biological target: Histone H4 OS = Homo sapiens GN = HIST1H4A PE = 1 (Homo sapiens) (UniProt P62805); assay: as above
[34] = biological target: DNA-dependent protein kinase catalytic subunit (UniProt P78527); assay: as above
[35] = biological target: 40S ribosomal protein S3 OS = Homo sapiens GN = RPS3 (Homo sapiens) (UniProt P23396); assay: as above
[36] = biological target: Desmoplakin OS = Homo sapiens GN = DSP PE = 1 SV = 3 (Homo sapiens) (UniProt P15924); assay: as above
[37] = biological target: Heat shock protein HSP 90-alpha OS = Homo sapiens (Homo sapiens) (UniProt P07900); assay: as above
[38] = biological target: Isoform 2 of Glyceraldehyde-3-phosphate (name cut off as printed) (UniProt P04406); assay: as above
[39] = biological target: Tubulin beta-4B chain OS = Homo sapiens GN = TUBB4B (Homo sapiens) (UniProt P68371); assay: as above
[40] = biological target: Isoform 2 of Plectin OS = Homo sapiens GN = PLEC (Homo sapiens) (UniProt Q15149); assay: as above
[41] = biological target: Isoform 2 of ATP synthase subunit alpha, mitochondrial (UniProt P25705); assay: as above

Chain of dysadherin (FXYD5) as expressed in human CRC cells (endogenous in SW480 cells; overexpressed in HCT116 cells) (Q96DB9 22-178): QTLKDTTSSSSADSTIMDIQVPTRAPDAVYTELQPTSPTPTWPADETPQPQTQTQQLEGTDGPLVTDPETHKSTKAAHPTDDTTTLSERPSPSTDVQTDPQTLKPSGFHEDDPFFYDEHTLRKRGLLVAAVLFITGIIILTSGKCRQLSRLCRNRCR
Chain of DNA-dependent protein kinase catalytic subunit (P78527 whole entry): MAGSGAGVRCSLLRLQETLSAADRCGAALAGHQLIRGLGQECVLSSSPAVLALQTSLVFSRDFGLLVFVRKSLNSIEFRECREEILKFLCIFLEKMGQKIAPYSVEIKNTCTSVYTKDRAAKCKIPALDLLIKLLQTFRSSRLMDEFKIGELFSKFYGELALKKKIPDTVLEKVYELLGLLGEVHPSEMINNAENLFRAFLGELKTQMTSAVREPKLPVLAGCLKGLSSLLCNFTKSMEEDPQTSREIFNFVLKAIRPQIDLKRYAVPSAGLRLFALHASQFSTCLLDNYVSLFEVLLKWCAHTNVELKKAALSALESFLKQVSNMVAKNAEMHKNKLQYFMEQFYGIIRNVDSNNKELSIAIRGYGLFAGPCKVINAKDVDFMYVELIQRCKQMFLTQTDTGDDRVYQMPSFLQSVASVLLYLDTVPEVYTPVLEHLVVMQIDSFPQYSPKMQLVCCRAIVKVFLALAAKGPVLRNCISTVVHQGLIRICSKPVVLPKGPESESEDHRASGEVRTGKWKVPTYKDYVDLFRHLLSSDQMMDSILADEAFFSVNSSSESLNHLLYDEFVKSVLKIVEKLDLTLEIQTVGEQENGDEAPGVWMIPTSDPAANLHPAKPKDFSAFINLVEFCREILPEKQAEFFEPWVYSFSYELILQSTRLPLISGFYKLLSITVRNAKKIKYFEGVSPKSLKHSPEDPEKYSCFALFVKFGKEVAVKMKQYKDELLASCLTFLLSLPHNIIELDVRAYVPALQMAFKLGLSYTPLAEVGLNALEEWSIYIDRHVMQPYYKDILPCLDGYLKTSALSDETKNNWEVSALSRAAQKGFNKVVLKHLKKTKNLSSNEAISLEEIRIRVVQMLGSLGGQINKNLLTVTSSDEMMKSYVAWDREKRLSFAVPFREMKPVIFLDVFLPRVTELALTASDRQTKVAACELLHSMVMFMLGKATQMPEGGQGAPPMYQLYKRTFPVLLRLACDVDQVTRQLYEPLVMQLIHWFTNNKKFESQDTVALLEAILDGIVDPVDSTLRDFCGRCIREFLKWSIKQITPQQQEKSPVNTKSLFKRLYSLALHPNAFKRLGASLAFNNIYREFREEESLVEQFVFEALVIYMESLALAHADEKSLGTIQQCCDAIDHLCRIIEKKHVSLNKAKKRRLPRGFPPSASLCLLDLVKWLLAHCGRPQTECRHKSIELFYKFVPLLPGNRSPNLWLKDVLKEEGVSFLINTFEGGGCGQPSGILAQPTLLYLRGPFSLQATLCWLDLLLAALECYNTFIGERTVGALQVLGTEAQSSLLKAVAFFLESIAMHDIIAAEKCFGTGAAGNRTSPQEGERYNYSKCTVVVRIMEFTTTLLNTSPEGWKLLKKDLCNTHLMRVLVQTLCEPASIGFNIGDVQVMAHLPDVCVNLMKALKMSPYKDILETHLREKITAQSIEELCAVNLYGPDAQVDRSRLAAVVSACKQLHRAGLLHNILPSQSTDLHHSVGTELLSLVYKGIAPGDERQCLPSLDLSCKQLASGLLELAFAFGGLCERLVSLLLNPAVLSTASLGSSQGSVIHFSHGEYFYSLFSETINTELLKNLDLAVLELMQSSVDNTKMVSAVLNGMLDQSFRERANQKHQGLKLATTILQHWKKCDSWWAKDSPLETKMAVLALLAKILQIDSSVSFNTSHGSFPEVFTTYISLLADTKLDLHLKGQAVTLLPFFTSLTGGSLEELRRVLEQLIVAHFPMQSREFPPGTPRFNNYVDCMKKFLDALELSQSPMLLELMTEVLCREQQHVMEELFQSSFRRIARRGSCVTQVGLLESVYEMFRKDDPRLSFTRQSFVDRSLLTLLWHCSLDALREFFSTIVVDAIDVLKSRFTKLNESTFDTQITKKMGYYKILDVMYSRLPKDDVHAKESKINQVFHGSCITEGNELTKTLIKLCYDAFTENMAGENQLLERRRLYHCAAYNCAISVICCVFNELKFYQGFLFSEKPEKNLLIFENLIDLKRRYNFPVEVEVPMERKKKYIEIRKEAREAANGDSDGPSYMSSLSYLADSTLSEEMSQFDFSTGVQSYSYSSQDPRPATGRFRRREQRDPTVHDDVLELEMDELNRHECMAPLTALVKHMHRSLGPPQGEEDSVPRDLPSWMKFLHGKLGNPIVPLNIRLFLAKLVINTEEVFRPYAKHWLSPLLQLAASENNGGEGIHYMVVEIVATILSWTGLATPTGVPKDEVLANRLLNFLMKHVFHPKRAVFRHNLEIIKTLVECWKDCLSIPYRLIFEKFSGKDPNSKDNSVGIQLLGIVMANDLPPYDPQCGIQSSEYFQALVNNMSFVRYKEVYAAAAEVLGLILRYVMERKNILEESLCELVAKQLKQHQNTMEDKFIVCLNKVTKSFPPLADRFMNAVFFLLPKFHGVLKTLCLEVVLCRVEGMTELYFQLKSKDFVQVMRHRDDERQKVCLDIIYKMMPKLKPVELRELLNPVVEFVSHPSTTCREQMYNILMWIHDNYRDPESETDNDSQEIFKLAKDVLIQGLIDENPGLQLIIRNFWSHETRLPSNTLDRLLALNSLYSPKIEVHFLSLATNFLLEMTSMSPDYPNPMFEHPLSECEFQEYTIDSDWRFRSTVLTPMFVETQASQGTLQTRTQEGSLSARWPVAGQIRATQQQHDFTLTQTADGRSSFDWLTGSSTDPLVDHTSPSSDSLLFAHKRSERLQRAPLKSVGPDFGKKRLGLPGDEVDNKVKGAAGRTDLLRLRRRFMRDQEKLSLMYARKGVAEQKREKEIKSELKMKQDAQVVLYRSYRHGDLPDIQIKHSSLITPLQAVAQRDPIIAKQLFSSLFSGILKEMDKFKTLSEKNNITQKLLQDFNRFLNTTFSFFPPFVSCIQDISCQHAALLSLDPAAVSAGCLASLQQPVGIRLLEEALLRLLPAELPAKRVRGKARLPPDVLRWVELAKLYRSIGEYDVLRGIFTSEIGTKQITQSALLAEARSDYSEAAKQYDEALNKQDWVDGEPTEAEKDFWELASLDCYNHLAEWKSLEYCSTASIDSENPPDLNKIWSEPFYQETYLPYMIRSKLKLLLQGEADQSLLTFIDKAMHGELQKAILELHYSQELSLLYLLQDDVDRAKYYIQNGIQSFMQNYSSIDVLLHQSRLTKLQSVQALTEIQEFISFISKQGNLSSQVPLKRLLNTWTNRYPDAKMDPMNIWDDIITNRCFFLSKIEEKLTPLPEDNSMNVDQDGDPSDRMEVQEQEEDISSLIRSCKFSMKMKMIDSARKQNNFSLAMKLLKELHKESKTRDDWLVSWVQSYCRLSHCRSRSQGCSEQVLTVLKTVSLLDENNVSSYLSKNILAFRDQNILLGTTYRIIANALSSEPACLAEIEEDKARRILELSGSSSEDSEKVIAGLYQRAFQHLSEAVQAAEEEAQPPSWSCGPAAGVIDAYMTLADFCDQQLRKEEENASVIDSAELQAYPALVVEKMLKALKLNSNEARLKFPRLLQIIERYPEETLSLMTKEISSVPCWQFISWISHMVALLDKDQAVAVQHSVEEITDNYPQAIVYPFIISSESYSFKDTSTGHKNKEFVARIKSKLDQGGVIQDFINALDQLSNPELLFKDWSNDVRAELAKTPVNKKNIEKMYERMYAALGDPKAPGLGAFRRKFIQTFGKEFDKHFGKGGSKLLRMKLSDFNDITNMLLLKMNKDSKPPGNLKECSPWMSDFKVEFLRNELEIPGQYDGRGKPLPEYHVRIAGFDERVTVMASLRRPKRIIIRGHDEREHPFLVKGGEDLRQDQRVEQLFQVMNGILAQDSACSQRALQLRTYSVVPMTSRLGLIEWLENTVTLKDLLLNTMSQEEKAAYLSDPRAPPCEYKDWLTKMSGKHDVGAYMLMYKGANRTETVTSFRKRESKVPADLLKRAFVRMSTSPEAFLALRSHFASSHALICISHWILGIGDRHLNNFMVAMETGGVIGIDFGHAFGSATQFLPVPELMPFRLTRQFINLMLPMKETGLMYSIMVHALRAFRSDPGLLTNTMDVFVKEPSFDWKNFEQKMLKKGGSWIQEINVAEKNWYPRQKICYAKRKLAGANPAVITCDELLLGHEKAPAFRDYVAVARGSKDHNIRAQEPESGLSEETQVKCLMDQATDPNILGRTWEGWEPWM
Chain of Junction plakoglobin OS = Homo sapiens GN = JUP PE = 1 (Homo sapiens) (P14923 whole entry): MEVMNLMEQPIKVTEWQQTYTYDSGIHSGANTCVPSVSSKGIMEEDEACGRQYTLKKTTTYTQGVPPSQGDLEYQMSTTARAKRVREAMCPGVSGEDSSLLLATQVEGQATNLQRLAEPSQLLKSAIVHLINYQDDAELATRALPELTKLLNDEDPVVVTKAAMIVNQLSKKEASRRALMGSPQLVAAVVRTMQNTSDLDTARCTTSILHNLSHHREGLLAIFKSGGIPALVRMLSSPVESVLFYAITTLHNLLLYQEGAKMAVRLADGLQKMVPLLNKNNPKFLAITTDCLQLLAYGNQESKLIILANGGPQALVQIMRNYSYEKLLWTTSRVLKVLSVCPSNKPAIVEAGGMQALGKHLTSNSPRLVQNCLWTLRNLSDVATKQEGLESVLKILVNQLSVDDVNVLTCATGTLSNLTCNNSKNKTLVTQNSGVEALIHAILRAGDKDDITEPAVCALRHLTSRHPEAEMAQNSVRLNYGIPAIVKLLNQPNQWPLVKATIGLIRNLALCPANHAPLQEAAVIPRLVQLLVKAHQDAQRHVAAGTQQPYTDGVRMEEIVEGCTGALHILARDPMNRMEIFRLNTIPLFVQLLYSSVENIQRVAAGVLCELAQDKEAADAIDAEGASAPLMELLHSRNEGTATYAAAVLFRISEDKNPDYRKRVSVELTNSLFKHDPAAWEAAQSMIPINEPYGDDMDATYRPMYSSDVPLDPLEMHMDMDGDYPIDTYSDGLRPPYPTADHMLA

dysadherin (FXYD5) as expressed in human CRC cells (endogenous in SW480 cells; overexpressed in HCT116 cells) (from UniProt Q96DB9 22-178)
Probe identification probability [1]: 100%
Probe identification probability [2]: 100%
Probe identification probability [3]: 100%
Probe identification probability [4]: 100%
Probe identification probability [5]: 100%
Probe identification probability [6]: 100%
Probe identification probability [7]: 100%
Probe identification probability [8]: 100%
Probe identification probability [9]: 100%
Probe identification probability [10]: 100%
Probe identification probability [11]: 100%
Probe identification probability [12]: 100%
Probe identification probability [13]: 100%
Probe identification probability [14]: 100%
Probe identification probability [15]: 100%
Probe identification probability [16]: 100%
Probe identification probability [17]: 100%
Probe identification probability [18]: 100%
Probe identification probability [19]: 100%
Probe identification probability [20]: 100%

isotype IgG control antibody
Probe identification probability [21]: 10%
Probe identification probability [22]: 100%
Probe identification probability [23]: 100%
Probe identification probability [24]: 100%
Probe identification probability [25]: 6%
Probe identification probability [26]: 98%
Probe identification probability [27]: 100%
Probe identification probability [28]: 100%
Probe identification probability [29]: 100%
Probe identification probability [30]: 75%
Probe identification probability [31]: 100%
Probe identification probability [32]: 13%
Probe identification probability [33]: 100%
Probe identification probability [34]: 72%
Probe identification probability [35]: 100%
Probe identification probability [36]: 91%
Probe identification probability [37]: 100%
Probe identification probability [38]: 99%
Probe identification probability [39]: 100%
Probe identification probability [40]: 15%
Probe identification probability [41]: 100%
